Measured values: the DeepSol protein solubility set

assay: soluble on expression in E. coli; label from the status in PepcDB or PDB records

Sequence | soluble on expression in E. coli
GMTEAFPALVRQDDARYAITVGPDLAVGPPGHAYLFGGASMALALDVAAETVGRPVVQGSLQFVSFTPLGSVLDLTVEVLQSGRTLAQARVAGTVDGRLVFHSGISLGMREGFSARQWALAPPVPQPDNCPPCTTLPAQDDNARYLEGIEVREAGGPEVPSGRTRLWLRRKDGAPLDAASLAMFADFLPIALGRATGCSGGGNSLDNSLRITGAAAPGWCLCDMIIPSSASGFAQGQVTLWDQSGRLLATGAQSLLLKG | soluble
MEDLALRPKTLDEYIGQERLKQKLRVYLEAAKARKEPLEHLLLFGPPGLGKTTLAHVIAHELGVNLRVTSGPAIEKPGDLAAILANSLEEGDILFIDEIHRLSRQAEEHLYPAMEDFVMDIVIGQGPAARTIRLELPRFTLIGATTRPGLITAPLLSRFGIVEHLEYYTPEELAQGVMRDARLLGVRITEEAALEIGRRSRGTMRVAKRLFRRVRDFAQVAGEEVITRERALEALAALGLDELGLEKRDREILEVLILRFGGGPVGLATLATALSEDPGTLEEVHEPYLIRQGLLKRTPRGRVATELAYRHLGYPPPVGPLLEP | soluble
MSSCSSLQSSSSRGASTDSLNTTSNGFSDGGSNLLPPKPNRIGCAATGAQSETDLRFVTSRDTHSSIPLNEPFGFGEKSPRAFMSENDLSAGAAGASTDFPEVTRTPSYLRISCALNGYTKSPNKSDLTPIAPHPPVSTMGESFVERRSRMFSQPQQRNPAPGFSSPLPPTTVSSQSASSEIEWSVEKF | not soluble
MPTPEDVPMDENDAGRVAEGSQDESKTPSREVLKKLLNEVEMAEMEENEMWYLISQKWWNSLIKAVRDGFVDDVGPIDNSQISECRNGSFFLKQRLAEQVDYTPVPEILFKRLERFYHIDDDRRDYIQRRVVRKDGKLCIEVYPRIVHITSARNRDIKADLVLRPDDTMVSLRERVIGELSLSTTDNIRFYVMNGENYELIDTAQSIDSYFDTVQKVVVDVEEDGEFFIKGKSATPKSLFGTQSSSSHGGNGISNSYNSPSPSTGVVTRTTPGACGLSNLGNTCFMASAFQCLSNMPPLREYFLANTYQNDINEDNPLGTHGHLAMAVGELMKGMWSGDYASINPRKFKSIIGQFAPRFNGYSQQDAHELMAYVLDGLHEDLNRIKKKPYIEDSDEDAKLPEAEYAAKSWEVYKMRNDSIIVDTLHGQLKSTLICPVCEKISIKFDPFGYLSLPLPPKEQIVKQTVIVMFLTRKWAKFSLGITDTTTVEEAERLMLDKLQPEQQHHFVFFHVPSQYHDDITMMRPGDRVRMPGREVYVAEVEHDLQVKGTRLFVAYNRIKLVRSASLPMIYSLPTGYPLTRGFLNDHVFSTTKHFFINPKAVAELGGGNSNDDDSMSGSNSADEREPYKLFVGPPGSTASLPIPPTDDPIPFPDENSHDIYSNFLQIVFQWKDLKIFNQYKGNELIEREMTVSTRRKVLLQETLDWFTTKEQLGEQDSWYCPQCKKHERATKQLALWKLPEILILHLKRFQYTKWSREKLTWEVVIPVRGLDLTDKVANPNHEKAIYDLIAVSRHYGSLSGGHYTAIGYNDREQKWFDFNDSSANPTYPPAEPYESSDPYILVYRRRKLDSNGKPIEPSAVSESLHSRPKRGAAPTISSATSSASSSRHQVDENMEMEED | not soluble
MKNFEIVTVTPDHAEQLISMIHELAEFEKMKSSVVNTAEKLRKDIENKAVHGFIAFIGEEPAGMNLFYYAYSTWVGQYLHMEDLYIRPQFRRMGLARTLWKKLAELARDKGIVRLEWAVLDWNKNAIALYDTVDYVNLTKSEGWFTFRMDGAAINKFADE | not soluble
KGDFVFKPYLLVQTCANFNWYDDEGLDKAYNQDNVANSGFSIPYAVLGFTGKAFGKVAFNLSINAAASGGALLQQAWFDVQLKKQFAVRVGKFKTPFSHAYLTTLGETLLPQLPVSLTSAIILPYSLNAVTPNIGTGFDLGVEIHGLLADKFGYEVGLFNGTGSSVNTATKTLSDDWHIPSLLYAGRFTYMPKGVMPSTQGNPNRLNEDKIMFGVSASINVESENESTNDTRVGVEFAMLKNKLYLGAEAYYMNVGFTDRQKINETYNYLGGYVQGGYFVAPRLQAALRYDFFNRNGTSDDGFLNMPAVGVNYFFKGCNLKLQAMYQYIARTGHDTQLDRDNDNLGLATHSATVMLQYTF | not soluble
MGSDKIHHHHHHMNKYLNNINASYCCGCSACVHKCPKQCLRMSQDKDGFFFPIVNNREACIDCSLCAKVCPMENMVESDYPHTFYGAYNTNKTDIVNSSSGGIYPSLAKWIISQGGIVFGASLDDEHKLYHIGVSTESDIQKTIGSKYFQSEIRDTYVECKKELDKGRLVLYTGTPCQVHGLKRYLGKDYDNLYTADVICHGVPSSKMFDAYIDFLEKKHNGKLVDINFRDKKRNGWSITLRYTIEYSNDKRKDYYLINKLSEYFMAFLGGYIERESCYSCPFSSMRRPGDITMGDFWGYQFKRPDLKHDEGLSLIIVNSEHGKRIVDVLHRNGVQFNAVDEECVKASENKNLYKPTLRPEVRSVVYDELQNFGFEYIAKKYFRRTQTLRNKAKNYMPVALVNIIKKLK | not soluble
MSIMGKVAKLDSAMQRGLDNSFAFVFGGKLVPAEIEELLKQEVQDNIVRAYEGGVESPNVFRVRVSRKDAQNLAQRYPSLADDFADRLSRYTRNQGWSTEGPVVVTIAADSGLRTGQLHASSAFDPVPQEYSHFIGVEDDVAAAAPTNDESNYESESGMNSYDADPRTEYMTAQAPDAIYTEVPVPEPKATPTVSLLLQDGSSRTYLVEEGSNIIGRSNEAHFRLPDTGVSRQHAEITWNGRDAILTDLKSTNGTTVNDTPVENWLLEDGDVITVGHSHIEVRIVEPN | not soluble
MTEDALNRIADALERMAPAPLRAPDFAVAPAFVWHVAPERLEPVRDVNRVDLDLLVGINRARDTLLDNTRRFAAGHGANNALLWGARGMGKSSLVKAVHGALQPEFPNLKLVELQREDLPSVARLLNHLRAAPERFILFCDDLSFSHDDQHYKSLKAVLDGGIEGRPENVVFYATSNRRHLMPRDMIENERSSAINPSEAVEEKVSLSDRFGLWLGFHPCDQDEYLAMIDGYCAAYGVSVAPDTLRAEAIEWQATRGARSGRVAWQFFTDLAGRQGIALRLEHHHHHH | soluble
MGSDKIHHHHHHKQEPISKSGVPVINLSEDVSTVPSLLLSEAAEKLEIVPLEMTDESVLSDITEMQVTDHNIWIDHGREFYIYRFSRTGKFLNKIGSIGQGPGEYTTYSTFLVDEDKKEVYIIANTNGVLAYDFEGNFKRKIIDIQMILQLFSSPYDQYILNNQKFFATQNFGLYRPIDKDSLWSFVSLGDDFQKKKYFKNPAHVGREEQIIANRANMDRMVNYWREYLTSMDTYNAQLTLKYPDTDTIYCYDDATNQLSPQYAIFTDEEKGDYEATHLWFKDRKAFDYFSIFSYYPTKDFIYLVGSKGEEVYTYCYNKKDGSVRLQKRQSTITERDVPWFSFPLRQMKRDFVLDNDLGGGDFTVDSRSSGKYWIDILEPGGDENWIDIDQIKSSTVIDESKKKELIRVLESATEDSNPILMIATLK | not soluble
DEYLENLTDTPKHSKAYPIIKFEFTGRSVDAPLLSQASKKFGVELSILTSQIDYAGGVKFGYTIAEVEGDEDAITQTKVYLMENNVRVEVLGYVQ | not soluble
AKKIGLFYGTQTGKTESVAEIIRDEFGNDVVTLHDVSQAEVTDLNDYQYLIIGCPTENIGELQSDWEGLYSELDDVDFNGKLVAYFGTGDQIGYADNFQDAIGILEEKISQRGGKTVGYWSTDGYDFNDSKALRNGKFVGLALDEDNQSDLTDDRIKSWVAQLKSEFGL | soluble
MGSDKIHHHHHHAFLTLKPVKTPFTMYSSVLGDFVITQLDENKQLHRYDTKGNTYTQQQVDSLLPSLYVRQLTADERFPDTICGKAVSPKDIQLTNFTFKSVPSAINAPQTGLYFLMESMSKRVDLKMPEDAFRFTDKGIEFIRMETNCIDEAKSKLFTDMLVQKGFAFPACYASGNPTTRKDYDEGYLVLDANHKLFHLKCTKGRPYVKAIQLPEGVLPEYVFITEFRSRRTLGYMVDSKHHFYIINSDGSLVKSALPGFDPAKDELTIFGNMFDWTVKLSTDKDDYYYALDATDYSLIKEHAYKDIRRSVPGLSFTSPDDKFVKPRF | not soluble
MGSSHHHHHHSSGLVPRGSHMETADLKSLAKRIYEAYLKNFNMNKVKARVILSGKASNNPPFVIHDMETLCMAEKTLVAKLVANGIQNKEAEVRIFHCCQCTSVETVTELTEFAKAIPGFANLDLNDQVTLLKYGVYEAIFAMLSSVMNKDGMLVAYGNGFITREFLKSLRKPFCDIMEPKFDFAMKFNALELDDSDISLFVAAIICCGDRPGLLNVGHIEKMQEGIVHVLRLHLQSNHPDDIFLFPKLLQKMADLRQLVTEHAQLVQIIKKTESDAALHPLLQEIYRDMY | soluble
